From paper PMC11162321 (Structure (London, England : 1993), 2024)

B1: SipAC-Core (SipA residues 512-658), unlabelled (domain or fragment)
chain: TGPFSGLKFKQNSFLSTVPSVTNMHSMHFDARETFLGVIRKALEPDTSTPFPVRRAFDGLRAEILPNDTIKSAALKAQCSDIDKHPELKAKMETLKEVITHHPQKEKLAEIALQFAREAGLTRLKGETDYVLSNVLDGLIGDGSWRA
B2: FM-SipAC-ΔArm2 (SipA residues 425-658 labelled with fluorescein maleimide) (domain or fragment)
chain: TGETTSFDEVDGVTSKSIIGKPVQATVHGVDDNKQQSQTAEIVNVKPLASQLAGVENVKTDTLQSDTTVITGNKAGTTDNDNSQTDKTGPFSGLKFKQNSFLSTVPSVTNMHSMHFDARETFLGVIRKALEPDTSTPFPVRRAFDGLRAEILPNDTIKSAALKAQCSDIDKHPELKAKMETLKEVITHHPQKEKLAEIALQFAREAGLTRLKGETDYVLSNVLDGLIGDGSWRA
modifications: labeled with fluorescein maleimide (FM)

What was measured:
[1] = molecular target: T1, F-actin (rabbit skeletal muscle α-actin, filamentous) (rabbit (Oryctolagus cuniculus), UniProt P68135 1-377); assay: other fluorescence titration
[2] = molecular target: T1, F-actin (rabbit skeletal muscle …); assay: fluorescence polarisation

Binder	Kd [1]	Kd [2]
B1	81 nM	–
B2	–	120 nM
